These results are taken from paper PMC5001605 (Nucleic Acids Research, 2016).

B1: Pyrococcus furiosus Pcc1 (pfuPcc1), full-length (natural protein)
chain: MKAKRVQAKIEIEFPSEDVAKVVYEAVLYEHLSVPYRRSEIDFKLEGKKIILDIKATDSSALRGTVNSYLRWIKAAIDVIEV
B2: Pyrococcus furiosus Kae1 (pfuKae1) (natural protein)
chain: MIALGIEGTAHTLGIGIVTENKVLANVFDTLKTEKGGIHPKEAAEHHAKLLKPLLRKALEEAGVSMEDIDVIAFSQGPGLGPALRVVATAARALAIKYNKPIVGVNHCIAHVEITKMFGVKDPVGLYVSGGNTQVLALEGGRYRVFGETLDIGIGNALDVFARELGLGFPGGPKIEKLALKGEKYIELPYAVKGMDLSFSGLLTEAIRKYKSGKYRVEDLAYSFQETAFAALVEVTERALAHTEKEEVVLVGGVAANNRLREMLRIMAEDRGVKFFVPPYDLCRDNGAMIAYTGLRMYKAGIKFKLEETIVKQKFRTDEVEVVW
B3: Methanococcus jannaschii Kae1 (mjKae1), amino acids 1-328 (domain or fragment)
chain: MICLGLEGTAEKTGVGIVTSDGEVLFNKTIMYKPPKQGINPREAADHHAETFPKLIKEAFEVVDKNEIDLIAFSQGPGLGPSLRVTATVARTLSLTLKKPIIGVNHCIAHIEIGKLTTEAEDPLTLYVSGGNTQVIAYVSKKYRVFGETLDIAVGNCLDQFARYVNLPHPGGPYIEELARKGKKLVDLPYTVKGMDIAFSGLLTAAMRAYDAGERLEDICYSLQEYAFSMLTEITERALAHTNKGEVMLVGGVAANNRLREMLKAMCEGQNVDFYVPPKEFCGDNGAMIAWLGLLMHKNGRWMSLDETKIIPNYRTDMVEVNWIKEIK

The target of assay [1] is B3. Nature of the assay: SEC-MALS.
The target of assay [2] is B1. Nature of the assay: SEC-MALS. On the technique in general: Size exclusion chromatography separates by hydrodynamic size, large species first.
Assay [3] has as its target B1. Description: SEC-MALS. The source holds these as a separate data set.
Assay [4] has as its target B1. Nature of the assay: AUC.

In the case of B1, the binding result in assay [1] is “binds”.

On to B2, for which the stoichiometry N (usually a count of units in the complex or per binding partner) in assay [2] is 1 Kae1 per Pcc1 (2:2).

On to B3, for which the entries for the “stoichiometry N” value in assay [3], in assay [4] and in assay [2] were 0.5 Kae1 per Pcc1 (1:2), ~1 Kae1 per Pcc1 (2:2) and 1 Kae1 per Pcc1 (2:2), respectively.
